This experiment has as its system A/Udorn/72 (H3N2) influenza virus. The format is cell-based, A/Udorn/72 (H3N2) influenza virus; human HEK293T cells.

B1: WT MORC3 (protein, UniProt Q14149 1-939, looked up)
MORC family CW-type zinc …: MAAQPPRGIRLSALCPKFLHTNSTSHTWPFSAVAELIDNAYDPDVNAKQIWIDKTVINDHICLTFTDNGNGMTSDKLHKMLSFGFSDKVTMNGHVPVGLYGNGFKSGSMRLGKDAIVFTKNGESMSVGLLSQTYLEVIKAEHVVVPIVAFNKHRQMINLAESKASLAAILEHSLFSTEQKLLAELDAIIGKKGTRIIIWNLRSYKNATEFDFEKDKYDIRIPEDLDEITGKKGYKKQERMDQIAPESDYSLRAYCSILYLKPRMQIILRGQKVKTQLVSKSLAYIERDVYRPKFLSKTVRITFGFNCRNKDHYGIMMYHRNRLIKAYEKVGCQLRANNMGVGVVGIIECNFLKPTHNKQDFDYTNEYRLTITALGEKLNDYWNEMKVKKNTEYPLNLPVEDIQKRPDQTWVQCDACLKWRKLPDGMDQLPEKWYCSNNPDPQFRNCEVPEEPEDEDLVHPTYEKTYKKTNKEKFRIRQPEMIPRINAELLFRPTALSTPSFSSPKESVPRRHLSEGTNSYATRLLNNHQVPPQSEPESNSLKRRLSTRSSILNAKNRRLSSQFENSVYKGDDDDEDVIILEENSTPKPAVDHDIDMKSEQSHVEQGGVQVEFVGDSEPCGQTGSTSTSSSRCDQGNTAATQTEVPSLVVKKEETVEDEIDVRNDAVILPSCVEAEAKIHETQETTDKSADDAGCQLQELRNQLLLVTEEKENYKRQCHMFTDQIKVLQQRILEMNDKYVKKETCHQSTETDAVFLLESINGKSESPDHMVSQYQQALEEIERLKKQCSALQHVKAECSQCSNNESKSEMDEMAVQLDDVFRQLDKCSIERDQYKSEVELLEMEKSQIRSQCEELKTEVEQLKSTNQQTATDVSTSSNIEESVNHMDGESLKLRSLRVNVGQLLAMIVPDLDLQQVNYDVDVVDEILGQVVEQMSEISST
Regarding B1, the “viral infectivity” value was “slight increase in viral infectivity”.
